Results on seven substances are retold here after US20160158369A1, “PHARMACEUTICAL COMPOSITION FOR RESPIRATORY ADMINISTRATION” (SEIKAGAKU CORPORATION, priority 2013, published 2016).

“And” between values parts separate entries of the source, which are not always exact repeats. Equal entries are not always repeated.

A short description of this data set: Drug dissociation test: polysaccharide derivative in buffer solution, 36°C, 1 week, HPLC. It is filed as physicochemical. As to the method: In the examples relating to drug dissociation test, the drug dissociation ratio was evaluated as described below.
Sodium dihydrogen phosphate dihydrate (780 mg (5.0 mmol)) was dissolved in 500 mL of distilled water to give a liquid A. Separately, disodium hydrogen phosphate dodecahydrate (1.79 g (5.0 mmol)) was dissolved in 500 mL of distilled water to give a liquid B. By mixing the liquid A and liquid B at ratio of 2:3, a phosphate buffer solution of pH 7.5 was prepared.
0.62 g (10 mmol) of boric acid and 0.75 g (10 mmol) of potassium chloride were weighed and dissolved in 500 mL of distilled water to give a liquid C. Separately, by diluting 0.1 N sodium hydroxide solution with distilled water (×10 dilution), a liquid D was prepared.
50 mL of the liquid C and 7 mL of the liquid D were added to a 100 mL mess flask, and according to dilution to 100 mL with distilled water, a borate buffer solution of pH 8.0 was prepared. Furthermore, 50 mL of the liquid C and 40 mL of the liquid D were added to a 100 mL mess flask, and according to mess-up to 100 mL with distilled water, a borate buffer solution of pH 9.0 was prepared.
Each polysaccharide derivative obtained from above was dissolved in a buffer solution at each pH so as to have a concentration of 5 mg/10 mL, and heated for 1 week in an incubator at 36° C. Then, the drug dissociation ratio during the incubation was evaluated every 24 hours by liquid chromatography (HPLC).
The evaluation was performed by measuring the ratio between the drug amount remained in a polysaccharide derivative and the dissociated drug amount according to use of a size exclusion chromatography column (manufactured by TOSOH, TSKgel α-6000, 7.8 mmI.D.×30 cm).
Detailed conditions for the liquid chromatography are as follows.
Analysis time: 40 minutes
Solution for elution: acetonitrile (for HPLC):physiological saline=1:2
Detector: UV detector (240 nm)

In the case of “Carboxymethyl Cellulose (500) Introduced with 21-β-Alanyl-Budesonide [Compound xxa]”, the “Dissociation ratio (%/day)” value is 2.8 %/day and 2.6 %/day (pH 7.4, 36°C); 2.8 %/day (pH 7.5, 36°C); 5.7 %/day and 5.5 %/day (pH 8.0, 36°C). Moreover, the drug dissociation ratio by setting is: (pH 7.5, 36°C, day 0) 2.0%; (pH 7.5, 36°C, day 1) 4.8%; (pH 7.5, 36°C, day 2) 7.4%; (pH 7.5, 36°C, day 3) 10.0%; (pH 7.5, 36°C, day 4) 12.6%; (pH 7.5, 36°C, day 5) 15.0%. Moreover, the drug dissociation ratio (pH 7.5, 36°C, day 6) worked out at 17.4%; the drug dissociation ratio (pH 7.5, 36°C, day 7) is given as 19.8%; the drug dissociation ratio (pH 8.0, 36°C, day 0) was determined as 2.7%; the drug dissociation ratio (pH 8.0, 36°C, day 1) is listed as 9.9%; the drug dissociation ratio (pH 8.0, 36°C, day 2) was found to be 16.4%; the drug dissociation ratio (pH 8.0, 36°C, day 3) is recorded as 22.1%. Moreover, the drug dissociation ratio was 27.1% (pH 8.0, 36°C, day 4); 31.7% (pH 8.0, 36°C, day 5); 35.9% (pH 8.0, 36°C, day 6); 39.6% (pH 8.0, 36°C, day 7).

For the substance “Chondroitin Sulfate Introduced with 11-(2-Fluoro-β-Alanyl)-Propionic Acid Fluticasone [Compound viii]”, the “Dissociation ratio (%/day)” value is, setting by setting: (pH 7.4, 36°C) 3.1 %/day; (pH 8.0, 36°C) 10.1 %/day. Moreover, the drug dissociation ratio (pH 7.4, 36°C, day 0) is 0.1%; the drug dissociation ratio (pH 7.4, 36°C, day 1) is recorded as 7.9%; the drug dissociation ratio (pH 7.4, 36°C, day 2) was determined as 4.9%; the drug dissociation ratio (pH 7.4, 36°C, day 3) is 12.7%; the drug dissociation ratio (pH 7.4, 36°C, day 4) came out at 8.4%; the drug dissociation ratio (pH 7.4, 36°C, day 5) is given as 15.2%. Further, the drug dissociation ratio (pH 7.4, 36°C, day 6) is on record as 14.3%; the drug dissociation ratio (pH 7.4, 36°C, day 7) was found to be 21.8%; the drug dissociation ratio (pH 8.0, 36°C, day 0) is given as 0.3%; the drug dissociation ratio (pH 8.0, 36°C, day 1) was found to be 14.8%; the drug dissociation ratio (pH 8.0, 36°C, day 2) was found to be 26.3%; the drug dissociation ratio (pH 8.0, 36°C, day 3) is reported as 27.1%. Also, the drug dissociation ratio amounted to 29.8% (pH 8.0, 36°C, day 4); 64.5% (pH 8.0, 36°C, day 5); 47.4% (pH 8.0, 36°C, day 6); 70.9% (pH 8.0, 36°C, day 7).

“Chondroitin Sulfate Introduced with 11-Glycyl-Propionic Acid Fluticasone [Compound xvii]”: the “Dissociation ratio (%/day)” value was found to be 0.4 %/day (pH 7.4, phosphate buffer solution/acetonitrile (1:1), 36°C) and 3.3 %/day (pH 8.0, borate buffer solution/acetonitrile (1:1), 36°C). Besides, the drug dissociation ratio reads like this: (pH 7.4, phosphate buffer solution/acetonitrile (1:1), 36°C, day 0) 0.0%; (pH 7.4, phosphate buffer solution/acetonitrile (1:1), 36°C, day 1) 0.3%; (pH 7.4, phosphate buffer solution/acetonitrile (1:1), 36°C, day 2) 0.7%; (pH 7.4, phosphate buffer solution/acetonitrile (1:1), 36°C, day 3) 1.3%; (pH 7.4, phosphate buffer solution/acetonitrile (1:1), 36°C, day 4) 1.9%; (pH 7.4, phosphate buffer solution/acetonitrile (1:1), 36°C, day 5) 2.3%. Also, the drug dissociation ratio is, setting by setting: (pH 7.4, phosphate buffer solution/acetonitrile (1:1), 36°C, day 6) 2.5%; (pH 7.4, phosphate buffer solution/acetonitrile (1:1), 36°C, day 7) 2.9%; (pH 8.0, borate buffer solution/acetonitrile (1:1), 36°C, day 0) 0.0%; (pH 8.0, borate buffer solution/acetonitrile (1:1), 36°C, day 1) 4.6%; (pH 8.0, borate buffer solution/acetonitrile (1:1), 36°C, day 2) 10.1%; (pH 8.0, borate buffer solution/acetonitrile (1:1), 36°C, day 3) 14.1%. Also, the drug dissociation ratio is on record as 17.8% (pH 8.0, borate buffer solution/acetonitrile (1:1), 36°C, day 4); 18.9% (pH 8.0, borate buffer solution/acetonitrile (1:1), 36°C, day 5); 20.0% (pH 8.0, borate buffer solution/acetonitrile (1:1), 36°C, day 6); 22.8% (pH 8.0, borate buffer solution/acetonitrile (1:1), 36°C, day 7).

As for “Chondroitin Sulfate Introduced with 11-β-Alanyl-Propionic Acid Fluticasone [Compound vii]”, the “Dissociation ratio (%/day)” value (pH 7.4, 36°C) is on record as 0.1 %/day and the “Dissociation ratio (%/day)” value (pH 8.0, 36°C) is listed as 0.2 %/day. Moreover, the drug dissociation ratio is, setting by setting: (pH 7.4, 36°C, day 0) 0.0%; (pH 7.4, 36°C, day 1) 0.0%; (pH 7.4, 36°C, day 2) 0.0%; (pH 7.4, 36°C, day 3) 0.2%; (pH 7.4, 36°C, day 4) 0.4%; (pH 7.4, 36°C, day 5) 0.4%. For the same substance, the drug dissociation ratio runs as follows: (pH 7.4, 36°C, day 6) 0.4%; (pH 7.4, 36°C, day 7) 0.4%; (pH 8.0, 36°C, day 0) 0.0%; (pH 8.0, 36°C, day 1) 0.3%; (pH 8.0, 36°C, day 2) 0.6%; (pH 8.0, 36°C, day 3) 0.7%. The drug dissociation ratio runs as follows: (pH 8.0, 36°C, day 4) 0.7%; (pH 8.0, 36°C, day 5) 1.0%; (pH 8.0, 36°C, day 6) 1.0%; (pH 8.0, 36°C, day 7) 1.1%.

Consider “Chondroitin Sulfate Introduced with 21-β-Alanyl-Budesonide (10 kDa) [Compound vc]”, for which the “Dissociation ratio (%/day)” value (pH 7.4, 36°C) was determined as 1.2 %/day and the “Dissociation ratio (%/day)” value (pH 8.0, 36°C) stood at 2.0 %/day. Moreover, the drug dissociation ratio stood at 0.4% (pH 7.4, 36°C, day 0); 1.6% (pH 7.4, 36°C, day 1); 2.8% (pH 7.4, 36°C, day 2); 3.7% (pH 7.4, 36°C, day 3); 4.8% (pH 7.4, 36°C, day 4); 5.3% (pH 7.4, 36°C, day 5). Moreover, the drug dissociation ratio (pH 7.4, 36°C, day 6) is reported as 6.8%; the drug dissociation ratio (pH 7.4, 36°C, day 7) is reported as 8.5%; the drug dissociation ratio (pH 8.0, 36°C, day 0) is listed as 0.1%; the drug dissociation ratio (pH 8.0, 36°C, day 1) was 1.9%; the drug dissociation ratio (pH 8.0, 36°C, day 2) was 2.4%; the drug dissociation ratio (pH 8.0, 36°C, day 3) was found to be 3.9%. In addition, the drug dissociation ratio (pH 8.0, 36°C, day 4) stood at 7.6%; the drug dissociation ratio (pH 8.0, 36°C, day 5) was determined as 9.7%; the drug dissociation ratio (pH 8.0, 36°C, day 6) is 11.2%; the drug dissociation ratio (pH 8.0, 36°C, day 7) is given as 14.0%.

Turning to “Chondroitin Sulfate Introduced with 21-β-Alanyl-Budesonide (20 kDa) [Compound vb]”, the “Dissociation ratio (%/day)” value by setting is: (pH 7.4, 36°C) 0.9 %/day; (pH 8.0, 36°C) 1.5 %/day. The drug dissociation ratio runs as follows: (pH 7.4, 36°C, day 0) 0.3%; (pH 7.4, 36°C, day 1) 1.2%; (pH 7.4, 36°C, day 2) 2.4%; (pH 7.4, 36°C, day 3) 3.0%; (pH 7.4, 36°C, day 4) 3.6%; (pH 7.4, 36°C, day 5) 4.0%. The drug dissociation ratio is, setting by setting: (pH 7.4, 36°C, day 6) 5.1%; (pH 7.4, 36°C, day 7) 6.4%; (pH 8.0, 36°C, day 0) 0.2%; (pH 8.0, 36°C, day 1) 1.2%; (pH 8.0, 36°C, day 2) 1.7%; (pH 8.0, 36°C, day 3) 2.9%. Further, the drug dissociation ratio by setting is: (pH 8.0, 36°C, day 4) 5.5%; (pH 8.0, 36°C, day 5) 7.6%; (pH 8.0, 36°C, day 6) 8.9%; (pH 8.0, 36°C, day 7) 10.8%.

As for “Chondroitin Sulfate Introduced with Seratrodast [Compound xxiii]”, the “Dissociation ratio (%/day)” value is reported as 0.1 %/day (pH 7.4, 36°C) and 0.2 %/day (pH 8.0, 36°C). Besides, the drug dissociation ratio reads like this: (pH 7.4, 36°C, day 0) 0.0%; (pH 7.4, 36°C, day 1) 0.0%; (pH 7.4, 36°C, day 2) 0.2%; (pH 7.4, 36°C, day 3) 0.3%; (pH 7.4, 36°C, day 4) 0.3%; (pH 7.4, 36°C, day 5) 0.4%. Also, the drug dissociation ratio is listed as 0.5% (pH 7.4, 36°C, day 6); 0.6% (pH 7.4, 36°C, day 7); 0.0% (pH 8.0, 36°C, day 0); 0.2% (pH 8.0, 36°C, day 1); 0.4% (pH 8.0, 36°C, day 2); 0.6% (pH 8.0, 36°C, day 3). In addition, the drug dissociation ratio runs as follows: (pH 8.0, 36°C, day 4) 0.7%; (pH 8.0, 36°C, day 5) 0.9%; (pH 8.0, 36°C, day 6) 1.1%; (pH 8.0, 36°C, day 7) 1.3%.
